Here are results for two molecules from patent US20100098682A1 (published 2010).

Assay [1] addresses T1, Amyloid precursor protein (APP), full length (human, UniProt P05067-4 18-695).
T1 construct: whole, on cells; Used for transfected APP (HeLa), stably expressed APP (HEK293APP, γ30 cells) and endogenous APP of human brain homogenates; also called full length APP; mature, glycosylated APP
As to the kind of experiment: anti-myc immunoprecipitation from γ30 cell lysates, western blot. Here is the method: (§1) FIG. 4 is photographs of western blots establishing that the first 102 amino acids of BRI2 are necessary to inhibit the efficient cleavage of C99 and that the same region is necessary for the binding of BRI2 to C99 of APP. […] HC indicates the heavy chain of myc antibody used in the immunoprecipitation.
(§2) Immunoprecipitation and western blot. Unless otherwise noted, all immunoprecipitation procedures were performed at 4° C. The transfected cells were lysed in Buffer A [20 mM Hepes/NaOH pH 7.4, 1 mM EDTA, 1 mM DTT, 150 mM NaCl, 0.5% (w/v) TritonX-100] containing 10% (v/v) Glycerol for 30 min, and the lysates were cleared at 20,000 g for 10 min. For FLAG immunoprecipitation, the cleared lysates were mixed with 20 μl of FLAG-M2 beads (Sigma) for 2 hours, and washed three times with Buffer A. The precipitates were boiled in 60 μl of 2×SDS sample buffer and subjected to western blot. For other immunoprecipitation, the cleared lysates were incubated with antibodies for one hour, and mixed with 20 μl of protein A/G beads (Pierce), washed and processed as above. Human brains (a generous gift of Dr. Peter Davies) were homogenized in Buffer A containing 10% (v/v) Glycerol using a Dounce homogenizer. The proteins were extracted overnight with the protein concentration at 5 mg/ml. Extracted proteins were cleared at 20,000 g for one hour. The supernatants were incubated with the indicated antibodies and protein A/G beads blocked with PBS containing 1% (w/v) BSA. Precipitants were washed and processed as described above.

Assay [2] deals with T2, C99, COOH-terminal fragment of 99 amino acids of APP (human, UniProt P05067 672-770).
T2 construct: domain: COOH-terminal fragment of 99 amino acids (C99); Produced in cells from APP by processing; also endogenous C99 of human brain
The description is as above. Here is the method: as §1, §2

B1: myc-tagged BRI2 C-terminal deletion, first 93 amino acids (other)
chain: MVKVTFNSALAQKEAKKDEPKSGEEALIIPPDAVAVDCKDPDDVVPVGQRRAWCWCMCFGLAFMLAGVILGGAYLYKYFALQPDDVYYCGIKY
notes: Expressed in γ30 cells; also called BRI2 1-93; not shown: myc tag
With B1, the binding result in assay [1] and in assay [2] was “no binding” each time.

B2: myc-tagged BRI2 C-terminal deletion, first 80 amino acids (other)
chain: MVKVTFNSALAQKEAKKDEPKSGEEALIIPPDAVAVDCKDPDDVVPVGQRRAWCWCMCFGLAFMLAGVILGGAYLYKYFA
notes: Expressed in γ30 cells; also called BRI2 1-80; not shown: myc tag
For B2, the binding result in assay [1] and in assay [2] was “no binding” in each case.
